For assay [1], the target named is T1, human proprotein convertase subtilisin/kexin type 9, his tagged antigen (Homo sapiens, UniProt Q8NBP7).
T1 construct: human PCSK9; also called hPCSK9; PCSK9; source: bought: Sinobiological, China, Cat# 29698-H08H
Put plainly: SPR; hPCSK9-his on CM5 chip (~800 RU); 6 or 7-point two-fold dilutions of the VHH-based proteins injected; 25 °C; global fit with floating Rmax; Biacore T200. The conditions noted are these: both partners purified. On the technique in general: SPR reads the build-up and loss of mass on a sensor chip optically.

Assay [2] addresses T1, human proprotein convertase …. Put plainly: SPR; lysate kinetics screening; hPCSK9-his immobilised on CM5 chip (~18000 RU); supernatants of TES lysates of clones flowed over; 25 °C; binding 120 s, dissociation 140 s; binding value read at ~120 s, stability value at ~135 s; Biacore T200. The conditions noted are these: one partner purified.

T1 sequence (Q8NBP7 31-692): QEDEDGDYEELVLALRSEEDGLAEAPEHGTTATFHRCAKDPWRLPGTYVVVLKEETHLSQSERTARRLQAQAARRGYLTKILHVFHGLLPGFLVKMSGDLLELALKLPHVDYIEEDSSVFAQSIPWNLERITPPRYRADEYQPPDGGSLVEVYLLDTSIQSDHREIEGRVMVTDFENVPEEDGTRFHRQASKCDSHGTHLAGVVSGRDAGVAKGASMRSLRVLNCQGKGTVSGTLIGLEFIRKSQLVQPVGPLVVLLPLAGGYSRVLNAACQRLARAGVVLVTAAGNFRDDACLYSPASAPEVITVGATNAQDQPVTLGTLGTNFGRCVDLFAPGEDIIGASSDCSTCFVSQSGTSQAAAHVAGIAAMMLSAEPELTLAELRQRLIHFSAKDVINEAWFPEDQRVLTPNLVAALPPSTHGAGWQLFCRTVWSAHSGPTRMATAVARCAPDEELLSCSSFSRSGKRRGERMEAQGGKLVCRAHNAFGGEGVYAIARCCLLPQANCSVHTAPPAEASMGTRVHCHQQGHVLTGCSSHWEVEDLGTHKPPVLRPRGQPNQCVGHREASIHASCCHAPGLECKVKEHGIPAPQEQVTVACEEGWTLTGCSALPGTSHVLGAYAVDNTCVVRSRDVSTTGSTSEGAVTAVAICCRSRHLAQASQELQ

B1: VHH-H12 (VHH)
VHH: GGGLVQAGGSLRLSCAASRSTFSGYAMAWFRQAPGKEREFVACIEREIPGHPAWSGLTYYADSKKGRFTISRDNAKNTVYLQMNSLKPEDTAVYYCAAGLKYPAQKHYDYDYWGQGTQVTVPS
notes: llama anti-hPCSK9 VHH from an immune phage library; source: E. coli, supernatant of TES lysate (screening); E. coli induced by IPTG, and Pichia pastoris X33, purified (Histrap FF column)
For B1, in assay [1], the dissociation constant (Kd) stood at 704 nM, the koff came out at 0.00524 s⁻¹ and the on-rate (kon) was found to be 7440 M⁻¹ s⁻¹. In assay [2], the “binding value (RU)” value was found to be 272 RU and the “stability value (RU)” value amounted to 373 RU.

B2: VHH-B11 (VHH)
VHH: EVQLVESGGGSVQAGGSLRLSCTVSGYTYSSNCMGWFRQAPGKEHEGVASIYIGGGSTYYADSVKGRFTISQDNAKNTVYLQMNSLKPEDTAMYYCAVGCQGLVDFGYWDQGTQVTVSS
notes: llama anti-hPCSK9 VHH from an immune phage library; 17 kDa on SDS-PAGE; also called monovalent VHH-B11; monovalency VHH-B11; source: E. coli, supernatant of TES lysate (screening); E. coli induced by IPTG, and Pichia pastoris X33, purified (Histrap FF column)
As to B2, in assay [1], the affinity, expressed as Kd, was 8.69 nM; the dissociation rate constant (koff) was determined as 0.00235 s⁻¹; the on-rate constant (kon) stood at 271000 M⁻¹ s⁻¹. In assay [2], the “binding value (RU)” value was 409 RU and the “stability value (RU)” value came to 472 RU.

B3: VHH-G8 (VHH)
VHH: DVQLVESGGGSVQAGGSLTLSCVVSGYRGQKICTGWFRQFPGMEREAVARILPRGPNTQYTDSVKGRFTISQDAAKNTVNLQMSSLKPKDTAMYYCAQGWGGASDWALQPRRYNYWGQGTQVTVSS
notes: as for B1
As for B3, in assay [1], the affinity, expressed as Kd, was 73 nM; the koff came out at 0.0114 s⁻¹; the kon was 162000 M⁻¹ s⁻¹. In addition, in assay [2], the “binding value (RU)” value stood at 132 RU and the “stability value (RU)” value came out at 160 RU.

B4: VHH-A6 (VHH)
VHH: PGAAAGVGGGSVQAGGSLRLSCAASRYTDRTRCIAWFRQVPGKEREGVACLDRAGGQSAYADSAKGRFTVSQDNAGNTVYLQMDNLIPEDSAMYYCAAAGVGQWYTCLQKFIRDKRSFANWGQGTQVTVSS
notes: as for B1
In assay [1], B4 had a Kd of 29 nM, a koff of 0.000447 s⁻¹ and a kon of 15400 M⁻¹ s⁻¹. In assay [2], the “binding value (RU)” value turned out to be 166 RU and the “stability value (RU)” value came out at 239 RU.

By Kd is commonly meant the free concentration of one partner at which half of the binding sites on the other are occupied at equilibrium, for simple one-to-one binding. A lower Kd goes with a tighter complex. Broadly, the koff is the rate constant with which the complex falls apart. Usually kon stands for a measure of how fast the partners come together.

(Values after article PMC7018876, “The novel llama-human chimeric antibody has potent effect in lowering LDL-c levels in hPCSK9 transgenic rats” (Clinical and Translational Medicine, 2020).)
